Data as given in the supplement of paper PMC6757056.
± gives the standard deviation of the averaged measurements.

B1: library; a variant is named by its letters at N, in order (parent)
chain: GCUGUCACCGGUGCUUGGUACGUUAUAUUCAGCCGGUCUGAUGAGUCUNNNNNNAGACGAAACAGC

Legend:
(6R,S)-folinic acid [1] = variants of: B1; experiment: normalized RNA/DNA level without ligand (relative to sTRSVctl = 100) (log10 (% of sTRSVctl)); HEK293T overexpressing SLC46A1; higher = less ribozyme self-cleavage, higher mRNA level; conditions: without (6R,S)-folinic acid; ligand present: no
Procedure, shortened: (§1)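 HEK293T cells were transfected with library plasmids carrying ribozyme switches linked to an mCherry reporter, or an eGFP reporter in some ligand experiments, at 4 µg per well of a 6-well plate, with any ligand added 1 h beforehand. After 72 h, total RNA was extracted with EDTA, reverse-transcribed, amplified, barcoded and sequenced. RNA level was defined as RNA reads over DNA reads, normalized to a spiked-in non-cleaving sequence or to the top-ranked sequences. That value was multiplied by 100 and converted to log10, the top set was 25 sequences, and only sequences with ≥100 DNA reads were retained.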

(6R,S)-folinic acid [2] = variants of: B1; experiment: normalized RNA/DNA level with ligand (relative to sTRSVctl = 100) (log10 (% of sTRSVctl)); HEK293T overexpressing SLC46A1; ligand concentration (+) RNA-Seq: 6 mM; higher = less ribozyme self-cleavage, higher mRNA level; conditions: with (6R,S)-folinic acid; ligand present: yes
Procedure, shortened: as §1

Row | Variant | normalized RNA/DNA level without ligand (log10) ((6R,S)-folinic acid [1]) | normalized RNA/DNA level with ligand (log10) ((6R,S)-folinic acid [2])
1 | UUCACA | 1.966 ± 0.017 | 1.971 ± 0.015
2 | UUCACC | 2.06 ± 0.036 | 2.02 ± 0.068
3 | UUCACG | 1.954 ± 0.013 | 2.01 ± 0.028
4 | CUCGCC | 2.1 ± 0.027 | 2.07 ± 0.054
5 | CUCGCG | 2.038 ± 0.016 | 2.03 ± 0.038
6 | GUAUAA | 1.96 ± 0.014 | 1.99 ± 0.006
7 | GUAUAC | 1.9802 ± 0.0015 | 2.02 ± 0.026
8 | GUAUAU | 1.944 ± 0.018 | 1.97 ± 0.043
9 | UUAUCA | 1.999 ± 0.019 | 2.01 ± 0.021
10 | UUAUCG | 1.885 ± 0.0047 | 1.97 ± 0.041
11 | UUAUCC | 2.04 ± 0.016 | 2.01 ± 0.032
12 | UUCUCA | 2.019 ± 0.003 | 2.04 ± 0.025
13 | UUCUCU | 2.06 ± 0.032 | 2.05 ± 0.054
14 | UUCUCG | 1.944 ± 0.0051 | 2.02 ± 0.056
15 | UUCUCC | 2.083 ± 0.014 | 2.02 ± 0.038
16 | AUCGAU | 1.98 ± 0.025 | 2.02 ± 0.031
17 | AUCGAA | 1.974 ± 0.0042 | 2 ± 0.02
18 | CUCGGA | 2.044 ± 0.0022 | 2.0131 ± 0.00036
19 | CUCGGC | 2.05 ± 0.027 | 2.04 ± 0.034

Row | Variant | normalized RNA/DNA level without ligand (log10) ((6R,S)-folinic acid [1]) | normalized RNA/DNA level with ligand (log10) ((6R,S)-folinic acid [2])
20 | CUCGGU | 2.03 ± 0.034 | 2.02 ± 0.028
21 | CUCGGG | 2.0341 ± 0.00097 | 2.07 ± 0.046
22 | CUCGUU | 2.0737 ± 0.0011 | 2.0492 ± 0.0012
23 | CUCGUC | 2.15 ± 0.022 | 2.12 ± 0.035
24 | CUCGUA | 2.004 ± 0.016 | 1.98 ± 0.046
25 | CUCGUG | 1.9917 ± 0.0012 | 2.013 ± 0.018
26 | AUCCGC | 2.054 ± 0.019 | 2.032 ± 0.005
27 | AUCCGG | 2.0408 ± 0.002 | 2.05 ± 0.023
28 | AUCCGA | 1.998 ± 0.0056 | 2.023 ± 0.0052
29 | AUCCGU | 2.023 ± 0.011 | 2.01 ± 0.027
30 | CUCCAC | 2.0214 ± 0.0016 | 2.01 ± 0.046
31 | CUCCAU | 2.021 ± 0.011 | 2.03 ± 0.0026
32 | CUCCAA | 2.03 ± 0.021 | 2.02 ± 0.025
33 | CUCCAG | 2.033 ± 0.011 | 2.0495 ± 0.00031
34 | CUCCCG | 2.067 ± 0.0068 | 2.0818 ± 0.00082
35 | CUCCCA | 2.064 ± 0.0049 | 2.01 ± 0.061
36 | CUCCCU | 2.04 ± 0.044 | 2.05 ± 0.062
37 | CUCCCC | 2.02 ± 0.033 | 2 ± 0.058
38 | UUCGAC | 1.994 ± 0.0022 | 2.02 ± 0.037

Row | Variant | normalized RNA/DNA level without ligand (log10) ((6R,S)-folinic acid [1]) | normalized RNA/DNA level with ligand (log10) ((6R,S)-folinic acid [2])
39 | UUCGAU | 1.954 ± 0.0023 | 2.02 ± 0.033
40 | UUCGAA | 1.947 ± 0.018 | 2 ± 0.027
41 | AUAGUU | 1.9853 ± 0.0008 | 2.009 ± 0.01
42 | GUCUGA | 2.05 ± 0.021 | 2.05 ± 0.038
43 | CUCUCU | 2.025 ± 0.017 | 2.019 ± 0.0069
44 | CUCUCC | 2.1 ± 0.025 | 2.07 ± 0.022
45 | CUCUCA | 2.05 ± 0.015 | 2.02 ± 0.057
46 | CUCUCG | 2.05 ± 0.014 | 2.014 ± 0.0035
47 | GUAUCC | 2.015 ± 0.013 | 2 ± 0.035
48 | GUAUCU | 2.034 ± 0.0026 | 2.038 ± 0.011
49 | GUAUCG | 2.028 ± 0.017 | 2.05 ± 0.041
50 | CUCGAC | 2.017 ± 0.0083 | 2.01 ± 0.02
51 | CUCGAU | 1.99 ± 0.0044 | 1.991 ± 0.0061
52 | CUCGAA | 1.994 ± 0.009 | 1.988 ± 0.018
53 | GUCGAA | 1.9847 ± 0.0012 | 2.02 ± 0.026
54 | GUCGAG | 1.947 ± 0.0022 | 2 ± 0.036
55 | AUCGGU | 1.94 ± 0.02 | 1.96 ± 0.032
56 | AUCGGC | 2.054 ± 0.013 | 2.02 ± 0.043
57 | AUCGGG | 1.923 ± 0.017 | 2.05 ± 0.047
